Measured values as given in patent US9266964.
Read-outs that look alike come from different tables or passages of the source. Each block holds one binder with its values, some of them ahead of it.

How the values were obtained:
[1] = target: T1, mouse plasma kallikrein (mouse, UniProt P26262 20-638, limits assumed); test: apparent inhibition constant (Ki,app) from enzyme inhibition of rodent pKal
T1 construct: also called mouse pKal; rodent pKal
T1 sequence (P26262 20-638 limits assumed): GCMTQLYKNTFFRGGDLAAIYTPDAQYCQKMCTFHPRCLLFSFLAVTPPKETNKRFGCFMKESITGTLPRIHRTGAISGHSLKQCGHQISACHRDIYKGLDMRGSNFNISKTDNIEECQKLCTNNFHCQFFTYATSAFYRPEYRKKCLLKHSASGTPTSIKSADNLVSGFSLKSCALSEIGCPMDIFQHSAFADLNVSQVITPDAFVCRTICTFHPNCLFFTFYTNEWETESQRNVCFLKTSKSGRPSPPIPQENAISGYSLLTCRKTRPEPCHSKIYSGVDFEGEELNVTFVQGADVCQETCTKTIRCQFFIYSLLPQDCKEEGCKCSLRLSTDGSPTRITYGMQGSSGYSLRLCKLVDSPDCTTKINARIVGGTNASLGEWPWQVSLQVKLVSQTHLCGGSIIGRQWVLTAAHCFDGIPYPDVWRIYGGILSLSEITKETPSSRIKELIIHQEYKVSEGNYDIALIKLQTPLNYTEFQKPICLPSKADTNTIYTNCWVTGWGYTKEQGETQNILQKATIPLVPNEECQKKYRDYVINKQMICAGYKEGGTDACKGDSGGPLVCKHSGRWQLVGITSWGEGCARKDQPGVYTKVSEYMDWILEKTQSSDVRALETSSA

[2] = target: T2, rat plasma kallikrein (rat, UniProt P14272 20-638, limits assumed); test: as above
T2 construct: also called rat pKal; rodent pKal
T2 sequence (P14272 20-638 limits assumed): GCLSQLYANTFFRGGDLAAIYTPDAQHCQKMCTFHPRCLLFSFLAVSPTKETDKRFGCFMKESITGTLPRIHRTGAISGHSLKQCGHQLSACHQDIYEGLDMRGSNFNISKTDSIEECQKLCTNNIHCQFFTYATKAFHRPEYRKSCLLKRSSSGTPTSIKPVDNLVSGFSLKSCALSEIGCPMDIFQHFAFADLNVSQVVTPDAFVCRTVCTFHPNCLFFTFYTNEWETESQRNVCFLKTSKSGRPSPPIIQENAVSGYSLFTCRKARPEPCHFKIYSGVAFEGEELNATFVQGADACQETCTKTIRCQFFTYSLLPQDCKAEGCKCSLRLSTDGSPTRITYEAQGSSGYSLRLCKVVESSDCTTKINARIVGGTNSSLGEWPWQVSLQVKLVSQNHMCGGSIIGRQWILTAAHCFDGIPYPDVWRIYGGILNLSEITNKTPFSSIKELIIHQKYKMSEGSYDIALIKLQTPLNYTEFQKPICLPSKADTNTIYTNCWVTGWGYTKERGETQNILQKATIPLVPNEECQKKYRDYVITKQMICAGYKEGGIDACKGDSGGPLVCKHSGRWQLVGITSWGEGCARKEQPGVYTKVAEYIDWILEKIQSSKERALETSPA

[3] = target: T3, human plasma kallikrein (human, UniProt P03952 20-390; P03952 391-638); test: apparent inhibition constant (Ki,app) from enzyme inhibition of human pKal; IgG
T3 construct: two disulfide-linked chains; also called pKal; human pKal
T3 sequence (P03952 20-390, chain 1 of 2): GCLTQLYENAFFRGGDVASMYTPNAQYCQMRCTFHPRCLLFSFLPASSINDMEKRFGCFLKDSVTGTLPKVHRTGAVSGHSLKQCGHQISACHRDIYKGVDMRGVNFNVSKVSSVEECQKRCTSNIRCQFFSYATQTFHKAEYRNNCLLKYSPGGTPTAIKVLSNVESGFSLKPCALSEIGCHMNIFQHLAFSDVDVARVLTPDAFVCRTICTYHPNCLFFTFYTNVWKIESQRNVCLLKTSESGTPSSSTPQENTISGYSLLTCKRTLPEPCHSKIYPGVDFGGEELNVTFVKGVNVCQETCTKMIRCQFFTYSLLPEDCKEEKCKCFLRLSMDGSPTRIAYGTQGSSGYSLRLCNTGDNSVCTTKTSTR
T3 sequence (P03952 391-638, chain 2 of 2): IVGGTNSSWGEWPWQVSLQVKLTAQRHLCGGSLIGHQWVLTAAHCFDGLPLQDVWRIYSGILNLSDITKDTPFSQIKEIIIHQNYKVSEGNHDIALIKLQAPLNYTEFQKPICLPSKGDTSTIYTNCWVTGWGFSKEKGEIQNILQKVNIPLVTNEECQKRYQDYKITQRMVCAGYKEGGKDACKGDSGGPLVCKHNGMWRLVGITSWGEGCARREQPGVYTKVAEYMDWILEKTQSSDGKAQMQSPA

[4] = target: T4, human plasma kallikrein (human, UniProt P03952 20-390; P03952 391-638); test: Ki,app, enzyme inhibition of pKal, Fab
T4 construct: two disulfide linked chains; also called pKal; human pKal
T4 sequence (P03952 20-390, chain 1 of 2): as the sequence (P03952 20-390, chain 1 of 2) above
T4 sequence (P03952 391-638, chain 2 of 2): as the sequence (P03952 391-638, chain 2 of 2) above

[5] = target: T4, human plasma kallikrein; test: Ki,app, enzyme inhibition of pKal, IgG
[6] = target: T4, human plasma kallikrein; test: Ki,app, enzyme inhibition of pKal; antibody format not stated
[7] = target: T5, human plasma kallikrein (active form) (human, UniProt P03952 20-390; P03952 391-638); test: apparent Ki (Ki,app), inhibition of human pKal enzyme activity
T5 construct: also called pKal; human pKal
T5 sequence (P03952 20-390, chain 1 of 2): as the sequence (P03952 20-390, chain 1 of 2) above
T5 sequence (P03952 391-638, chain 2 of 2): as the sequence (P03952 391-638, chain 2 of 2) above

[8] = target: T5, human plasma kallikrein (active form); test: as above; remark: listed apart in the source
Experimental: (§1) Apparent Inhibition constants (K_{i,app} values) were measured by pre-incubating enzyme and inhibitor solutions prior to initiating the reactions with substrate. Enzyme and inhibitor were pre-incubated for 2 hours at 30° C. in a 96-well plate by adding 10 μL of a 10× enzyme solution and 10 μL of 10× inhibitor solutions to 70 μL of reaction buffer. Reactions were initiated by the addition of 10 μL of a 10× concentrated stock of substrate, and were monitored at 30° C. in a fluorescence plate reader with the excitation and emission wavelengths set at 360 nm/460 nm, respectively. Kinetic data were acquired by the increase in fluorescence, and initial rates for each condition were plotted against the total inhibitor concentration. The data was fit to the following equation for tight binding inhibitors: […]

[9] = target: T6, mouse plasma kallikrein (mouse, UniProt P26262 20-638, limits assumed); test: apparent Ki (Ki,app), inhibition of mouse pKal enzyme activity
T6 construct: also called mouse pKal
Experimental: as §1
T6 sequence (P26262 20-638 limits assumed): as the sequence (P26262 20-638 limits assumed) above

[10] = target: T6, mouse plasma kallikrein; test: apparent Ki (Ki,app), inhibition of rodent pKal enzyme activity
[11] = target: T7, rat plasma kallikrein (rat, UniProt P14272 20-638, limits assumed); test: as above
T7 construct: also called rat pKal
T7 sequence (P14272 20-638 limits assumed): as the sequence (P14272 20-638 limits assumed) above

[12] = target: T3, human plasma kallikrein; test: apparent inhibition constant (Ki,app) from enzyme inhibition of human pKal; Fab
[13] = target: T4, human plasma kallikrein; test: Ki,app of IgG, enzyme inhibition of human pKal
[14] = target: T4, human plasma kallikrein; test: Ki,app as an IgG, steady state enzyme kinetics, inhibition of human pKal
[15] = target: T8, pKal catalytic domain Mutant 2 (human, UniProt P03952 391-638); test: enzyme inhibition, Ki,app on mutant and wild type pKal catalytic domain
T8 construct: Expressed in Pichia pastoris, purified by IMAC; not shown: His tag fusion
T8 sequence (P03952 other isoform, or with tags, fused parts or gaps mutant limits assumed): as the sequence (P03952 391-638, chain 2 of 2) above, with R161A, Q163A, Y165A, T168A, R170A counted along it

B1: M162-A04 (IgG) (antibody, V domains shown)
VH: EVQLLESGGGLVQPGGSLRLSCAASGFTFSHYIMMWVRQAPGKGLEWVSGIYSSGGITVYADSVKGRFTISRDNSKNTLYLQMNSLRAEDTAVYYCAYRRTGIPRRDAFDIWGQGTMVTVSS
VL: DIQMTQSPSTLSASVGDRVTITCRASQSISSWLAWYQQKPGKAPNLLIYKASTLESGVPSRFSGSGSGTEFTLTISSLQPDDFATYYCQQYNTYWTFGQGTKVEIK
notes: Human IgG; also called R84-H05; 559A-M0162-A04
- Ki [1]: 2 nM
- Ki [2]: 2 nM
- Ki [3]: 2 nM

B3: X63-G06 (Fab, V domains shown)
VH: EVQLLESGGGLVQPGGSLRLSCAASGFTFSHYLMTWVRQAPGKGLEWVSYISPSGGHTIYADSVKGRFTISRDNSKNTLYLQMNSLRAEDTAVYYCARVARGIAARSRTSYFDYWGQGTLVTVSS
VL: DIQMTQSPGTLSLSPGERATLSCRTSQFVNSNYLAWYQQTPGQAPRLLIYGASSRATGIPDRFSGTGYGTDFTLTISRLEPEDYGTYYCQQSSRTPWTFGQGTRVEIK
notes: Non-germlined Fab discovered using ROLIC, same HC but different LC as M160-G12; also called X63-G06 (Fab)
- Ki [4]: 0.4 nM

B5: X64-F04 (antibody, V domains shown)
VH: EVQLLESGGGLVQPGGSLRLSCAASGFTFSHYLMTWVRQAPGKGLEWVSYISPSGGHTIYADSVKGRFTISRDNSKNTLYLQMNSLRAEDTAVYYCARVARGIAARSRTSYFDYWGQGTLVTVSS
VL: DIQMTQSPATLSLSPGERATLSCRASQIVSSNYLAWYQQKPGQAPRLLIYGASNRATGIPDRFSGSGSGTEFTLTISSLQSEDFAIYYCQQSFNIPYTFGQGTRVDIK
notes: Found by ROLIC light chain shuffling
- Ki [6]: 1.9 nM

B6: X63-G10 (antibody, V domains shown)
VH: EVQLLESGGGLVQPGGSLRLSCAASGFTFSHYLMTWVRQAPGKGLEWVSYISPSGGHTIYADSVKGRFTISRDNSKNTLYLQMNSLRAEDTAVYYCARVARGIAARSRTSYFDYWGQGTLVTVSS
VL: DIQMTQSPDSLSASVGDRVTITCRASQSISNYLNWYQQKPGKAPKLLIYAASSLQSGVPSRFSGSGSGTDFTLTISGLQPEDFASYYCQQSYTSPYTFVQGTKLEIKR
notes: as for B5
- Ki [6]: 9 nM

B7: X81-B01 (antibody, V domains shown)
VH: EVQLLESGGGLVQPGGSLRLSCAASGFTFSHYLMTWVRQAPGKGLEWVSYISPSGGHTIYADSVKGRFTISRDNSKNTLYLQMNSLRAEDTAVYYCARVARGIAARSRTSYFDYWGQGTLVTVSS
VL: EIVLTQSPGTLSLSPGERATLSCRTSQFVNSNYLAWYQQKPGQAPRLLIYGASSRATGIPDRFSGSGSGTDFTLTISRLEPEDFAVYYCQQSSRTPWTFGQGTKVEIK
notes: also called X81-B01 (IgG); 559A-X81-B01
- Ki [7]: 0.2 nM
- Ki [8]: 0.1 nM
- Ki [9]: 0.011 nM
- Ki [10]: 0.011 nM
- Ki [11]: 0.14 nM

B8: M142-H08 (Fab) (Fab, V domains shown)
VH: EVQLLESGGGLVQPGGSLRLSCAASGFTFSAYSMIWVRQAPGKGLEWVSYIRPSGGRTTYADSVKGRFTISRDNSKNTLYLQMNSLRAEDTAVYYCARGGLLLWFRELKSNYFDYWGQGTLVTVSS
VL: DIQMTQSPSSLSAFVGDRVTITCRASQPIDNYLNWYHQKPGKAPKLLIYAASRLQSGVPSRLSGSGFGTDFTLTISSLQPEDFGNYYCQQSYTVPYTFGGGTKVEIR
notes: Fab; printed HC runs into the start of CH1
- Ki [1]: ~1 nM
- Ki [12]: 0.6 nM

B11: X67-G04 (IgG) (antibody, V domains shown)
VH: EVQLLESGGGLVQPGGSLRLSCAASGFTFSAYSMIWVRQAPGKGLEWVSYIRPSGGRTTYADSVKGRFTISRDNSKNTLYLQMNSLRAEDTAVYYCARGGLLLWARELKSNYFDYWGQGTLVTVSS
VL: DIQMTQSPSSLSAFVGDRVTITCRASQPIDNYLNWYHQKPGKAPKLLIYAASRLQSGVPSRLSGSGFGTDFTLTISSLQPEDFGNYYCQQSYTVPYTFGGGTKVEIR
notes: printed HC runs into CH1
- Ki [13]: 0.35 nM
- Ki [14]: 0.35 nM

B12: M6-D09 (antibody, V domains shown)
VH: EVQLLESGGGLVQPGGSLRLSCAASGFTFSFYYMVWVRQAPGKGLEWVSVIYPSGGITVYADSVKGRFTISRDNSKNTLYLQMNSLRAEDTAVYYCARDKWAVMPPYYYYAMDVWGQGTTVTVSS
VL: DIQMTQSPSSLSASVGDRVTITCRASQSIRNYLNWYQQKPGKAPNLLIYAASTLQSGVPARFSGSGSGTDFTLTISSLQPEDFATYYCQQLSGYPHTFGQGTKLEIK
notes: Group 3 antibody; also called M06-D09; 559A-M06-D09
- fold increase of Ki,app against the wild type catalytic domain [15]: ~5 fold

Results, then the binder that gave them:

- Ki [1]: < 1 nM
- Ki [3]: 5.6 nM
B2: M160-G12 (IgG) (antibody, V domains shown)
VH: EVQLLESGGGLVQPGGSLRLSCAASGFTFSHYLMTWVRQAPGKGLEWVSYISPSGGHTIYADSVKGRFTISRDNSKNTLYLQMNSLRAEDTAVYYCARVARGIAARSRTSYFDYWGQGTLVTVSS
VL: DIQMTQSPSFLSASVGDRVTITCRASQGISSYLAWYQQKPGKAPKLLIYAASTLQSGVPSRFSGSGSGTEFTLTISSLQPEDFATYYCQQLNSYPLTFGGGTKVEIK
notes: Human IgG; also called R84-D02

- Ki [5]: 0.2 nM
B4: X81-B01 (antibody, V domains shown)
VH: EVQLLESGGGLVQPGGSLRLSCAASGFTFSHYLMTWVRQAPGKGLEWVSYISPSGGHTIYADSVKGRFTISRDNSKNTLYLQMNSLRAEDTAVYYCARVARGIAARSRTSYFDYWGQGTLVTVSS
VL: EIVLTQSPGTLSLSPGERATLSCRTSQFVNSNYLAWYQQKPGQAPRLLIYGASSRATGIPDRFSGSGSGTDFTLTISRLEPEDFAVYYCQQSSRTPWTFGQGTKVEIK
notes: also called X81-B01 (IgG)

- Ki [7]: 0.1 nM
- Ki [10]: 0.7 nM
B9: X67-D03 (antibody, V domains shown)
VH: EVQLLESGGGLVQPGGSLRLSCAASGFTFSAYSMIWVRQAPGKGLEWVSYIRPSGGRTTYADSVKGRFTISRDNSKNTLYLQMNSLRAEDTAVYYCARGGLLLWNRELKSNYFDYWGQGTLVTVSS
VL: DIQMTQSPSSLSAFVGDRVTITCRASQPIDNYLNWYHQKPGKAPKLLIYAASRLQSGVPSRLSGSGFGTDFTLTISSLQPEDFGNYYCQQSYTVPYTFGGGTKVEIR
notes: Tested as IgG; Single point mutant (F to N in HC CDR3) of M142-H08; also called X67-D03 (IgG); 559A-X67-D03

- Ki [13]: 0.1 nM
- Ki [14]: 0.1 nM
B10: X67-D03 (IgG) (antibody, V domains shown)
VH: EVQLLESGGGLVQPGGSLRLSCAASGFTFSAYSMIWVRQAPGKGLEWVSYIRPSGGRTTYADSVKGRFTISRDNSKNTLYLQMNSLRAEDTAVYYCARGGLLLWNRELKSNYFDYWGQGTLVTVSS
VL: DIQMTQSPSSLSAFVGDRVTITCRASQPIDNYLNWYHQKPGKAPKLLIYAASRLQSGVPSRLSGSGFGTDFTLTISSLQPEDFGNYYCQQSYTVPYTFGGGTKVEIR
notes: printed HC runs into CH1; also called 559A-X67-D03
